In publication PMC5698383 (Applied Biochemistry and Biotechnology, 2017):
Read-outs that look alike come from different tables or passages of the source.

Experiments:
[1] = target: Fructose 1,6-bisphosphatase II from Francisella tularensis (glpX gene product) (Francisella tularensis); assay: SEC
[2] = target: Fructose 1,6-bisphosphatase II from Francisella tularensis (glpX gene product) (Francisella tularensis); assay: SEC; remark: listed apart in the source

## Fructose 1,6-bisphosphatase II from Francisella tularensis (glpX gene product) (enzyme)
[1]
  stoichiometry N: 2
[2]
  stoichiometry N: 4
